The labels stand for the following.
B1: PRG-PH (non-fluorescent PH domain of PDZRhoGEF) (domain or fragment, UniProt O15085 924-1085, looked up)
chain: VKQTENRHRLEGYQKRLDATALERASNPLAAEFKSLDLTTRKMIHEGPLTWRISKDKTLDLHVLLLEDLLVLLQKQDEKLLLKCHSKTAVGSSDSKQTFSPVLKLNAVLIRSVATDKRAFFIICTSKLGPPQIYELVALTSSDKNTWMELLEEAVRNATRHP
notes: PH domain of PDZRhoGEF (PRG); also called PDZRhoGEF-PH
B2: PH domain from mouse p114RhoGEF (residues 302-444) (domain or fragment, UniProt Q6P9R4-1 302-444, looked up)
chain: YEKDQRLKEIAAKTDQKSSGKLKNGLTFRKEDMLQQRQLHLEGALCWKSTSGRLKDVLAVLLTDVLLLLQEKDQKYVFASVDSKPPVISLQKLIVREVANEEKAMFLISASMQGPEMYEMYTSSKEDRNIWMAHIRRAVESCP
notes: p114RhoGEF, mouse, PH domain, residues 302-444; The final model holds residues 299-444, three more at the N-terminus than the stated construct; also called p114-PH; p114RhoGEF-PH
B3: PH domain from human AKAP-LbcRhoGEF (residues 2195-2333) (domain or fragment, UniProt Q12802 2195-2333, looked up)
chain: YEKKVRLNEIYTKTDSKSIMRMKSGQMFAKEDLKRKKLVRDGSVFLKNAAGRLKEVQAVLLTDILVFLQEKDQKYIFASLDQKSTVISLKKLIVREVAHEEKGLFLISMGMTDPEMVEVHASSKEERNSWIQIIQDTIN
notes: AKAP-LbcRhoGEF, human, PH domain, residues 2195-2333; also called AKAP-Lbc-PH; AKAP-LbcRhoGEF-PH
B4: p115-PH (PH domain of p115RhoGEF) (domain or fragment, UniProt Q92888 647-760, looked up)
chain: KLVHEGPLTWRVTKDKAVEVHVLLLDDLLLLLQRQDERLLLKSHSRTLTPTPDGKTMLRPVLRLTSAMTREVATDHKAFYVLFTWDQEAQIYELVAQTVSERKNWCALITETAG
notes: PH domain of p115 (Lbc-family RhoGEF)

“And” between values parts separate entries of the source, which are not always exact repeats. Equal entries are not always repeated.

The assay addresses T1, YFP-RhoA·GTPγS (UniProt P61586 1-193).
T1 construct: RhoA; Loaded with GTPγS
Description: FRET or BRET; competition: non-fluorescent PH domain titrated into 1 μM YFP-RhoA·GTPγS + 1 μM CFP-PRG-PH; 20 mM NaHEPES pH 7.5, 1 mM EDTA, 1 mM DTT, 100 mM NaCl, 5 mM MgCl2; 25 °C; ratio 525/475 nm. The following applies: both partners purified. In general terms: Bioluminescence resonance energy transfer reports proximity on the nanometre scale.
As usually defined, the IC50 is the concentration needed to halve the response being measured. As for B1, the IC50 was found to be 3 µM. In the case of B2 it was > 60 µM and ~60 µM; in that of B3, roughly 20 µM.

With B4, the IC50 is greater than 150 µM.

Source of the values: publication PMC5988292, “Crystal structures of the PH domains from Lbc family of RhoGEFs bound to activated RhoA GTPase” (Data in Brief, 2018).
